Measured values: paper doi:10.1101/2024.09.11.612445 (bioRxiv, 2024)

T1: recombinant CSTF3 21-549 (human, UniProt Q12996 21-549)
T1 sequence (looked up): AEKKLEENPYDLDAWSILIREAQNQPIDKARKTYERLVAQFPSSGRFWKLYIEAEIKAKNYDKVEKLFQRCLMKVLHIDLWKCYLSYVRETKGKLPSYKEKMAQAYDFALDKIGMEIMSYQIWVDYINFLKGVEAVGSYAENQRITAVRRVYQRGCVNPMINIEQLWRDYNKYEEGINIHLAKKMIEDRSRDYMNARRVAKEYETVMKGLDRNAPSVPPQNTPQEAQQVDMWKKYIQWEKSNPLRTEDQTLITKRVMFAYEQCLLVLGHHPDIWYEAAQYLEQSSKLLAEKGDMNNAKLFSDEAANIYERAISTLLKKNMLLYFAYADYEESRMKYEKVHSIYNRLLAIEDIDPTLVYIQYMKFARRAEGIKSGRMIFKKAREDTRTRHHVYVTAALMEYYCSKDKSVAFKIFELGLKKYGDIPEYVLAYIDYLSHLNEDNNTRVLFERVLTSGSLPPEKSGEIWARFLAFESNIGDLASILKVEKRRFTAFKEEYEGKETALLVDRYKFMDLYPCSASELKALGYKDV


How the values were obtained:
recombinant CSTF3 21-549 [1] = biological target: T1, recombinant CSTF3 21-549; assay: pull-down
recombinant CSTF3 21-549 [2] = biological target: T1, recombinant CSTF3 21-549; assay: ITC

Row | binding result (recombinant CSTF3 21-549 [1]) | binding result (recombinant CSTF3 21-549 [2]) | Binder
1 | binds | – | GST-WDR33 431-485 wild-type (domain or fragment, human, UniProt Q9C0J8 431-485, looked up) DDLEPNSLAVIPGMGIPEQLKLAMEQEQMGKDESNEIEMTIPGLDWGMEEVMQKD
2 | – | binds | SPTVDDEEEMLYGDS (peptide, UniProt Q10570 737-751, looked up) [CPSF1 737-751 wild-type peptide]
